Assay results reported in publication PMC10182041, “A first-in-class inhibitor of Hsp110 molecular chaperones of pathogenic fungi” (Nature Communications, 2023).

Target: T1, Msi3, the sole Hsp110 of Candida albicans (Candida albicans, UniProt Q96VB9 1-701)
T1 construct: Msi3 (Hsp110) of Candida albicans; ORF amplified from genomic DNA and cloned into the pSMT3 vector; source: E. coli Rosetta2(DE3)pLysS, purified (HisTrap, Ulp1 cleavage, second HisTrap, HiTrap Q); not shown: His6, N-terminal, cleaved; Smt3, N-terminal, cleaved
T1 sequence (looked up): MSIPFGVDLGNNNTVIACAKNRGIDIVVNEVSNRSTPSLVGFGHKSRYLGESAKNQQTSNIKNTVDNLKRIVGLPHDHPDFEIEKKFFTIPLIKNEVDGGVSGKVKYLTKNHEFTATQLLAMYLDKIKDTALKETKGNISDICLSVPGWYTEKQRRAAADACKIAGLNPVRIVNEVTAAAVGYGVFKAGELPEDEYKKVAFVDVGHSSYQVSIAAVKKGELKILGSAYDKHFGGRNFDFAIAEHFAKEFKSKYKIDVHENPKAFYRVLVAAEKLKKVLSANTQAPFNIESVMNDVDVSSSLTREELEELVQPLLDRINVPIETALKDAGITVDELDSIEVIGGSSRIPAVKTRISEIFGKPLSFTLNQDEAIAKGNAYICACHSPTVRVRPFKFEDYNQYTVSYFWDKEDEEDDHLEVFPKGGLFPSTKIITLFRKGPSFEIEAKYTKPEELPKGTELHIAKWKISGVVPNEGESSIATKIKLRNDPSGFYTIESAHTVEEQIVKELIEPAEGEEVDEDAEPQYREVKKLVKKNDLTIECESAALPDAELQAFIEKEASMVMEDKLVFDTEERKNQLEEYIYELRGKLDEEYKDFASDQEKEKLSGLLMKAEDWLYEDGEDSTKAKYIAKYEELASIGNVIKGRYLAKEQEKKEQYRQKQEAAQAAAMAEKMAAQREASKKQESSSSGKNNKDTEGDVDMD
Experiment: native gel or EMSA; Msi3 (5 uM) and Ssa1 (10 uM) mixed with 2 mM ATP in buffer D (25 mM Hepes-KOH pH 7.5, 50 mM KCl, 10 mM Mg(OAc)2, 1 mM DTT), 45 min on ice; 10% native gel, Coomassie; with or without 100 uM 2H
Details: both partners purified

B1: Ssa1, the major cytosolic Hsp70 of S. cerevisiae (natural protein)
chain: not shown
notes: Ssa1, Hsp70 from Saccharomyces cerevisiae; source: Pichia pastoris GS115, purified (HiTrap Q, butyl-Sepharose, ATP agarose)
B1: binds.
